In article PMC5109244:

Molecular target: T1, short mouse DNGR-1 ECD (extracellular domain of the short isoform of mouse DNGR-1) (mouse), Q8BRU4
T1 chain: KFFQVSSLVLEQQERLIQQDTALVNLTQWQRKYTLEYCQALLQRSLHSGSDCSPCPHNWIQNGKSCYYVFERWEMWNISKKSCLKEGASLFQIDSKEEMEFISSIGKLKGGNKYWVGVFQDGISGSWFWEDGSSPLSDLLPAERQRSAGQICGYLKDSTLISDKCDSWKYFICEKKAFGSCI
Assay: non-reducing SDS-PAGE and Western blot; supernatants of 293F cells with FLAG-tagged ECD proteins, Laemmli buffer without reducing agent, HRP-conjugated anti-FLAG detection
Details: remark: other sources report otherwise

B1: short mouse DNGR-1 ECD (extracellular domain of the short isoform of mouse DNGR-1), Q8BRU4 57-238 (domain or fragment)
chain: KFFQVSSLVLEQQERLIQQDTALVNLTQWQRKYTLEYCQALLQRSLHSGSDCSPCPHNWIQNGKSCYYVFERWEMWNISKKSCLKEGASLFQIDSKEEMEFISSIGKLKGGNKYWVGVFQDGISGSWFWEDGSSPLSDLLPAERQRSAGQICGYLKDSTLISDKCDSWKYFICEKKAFGSCI
modifications: here or on the partner: glycosylated (mobility augmented by PNGase F); glycosylated (mobility augmented by PNGase F)
- stoichiometry N: 2
